# Experimental data: the DeepSol protein solubility set
# Assay: soluble on expression in E. coli; label from the status in PepcDB or PDB records
row,Sequence,soluble on expression in E. coli
1,MTWEFENPLFVNSSGTAVGPKEKEGPLGHLFDKSYDEMHCNQKNWEMAERKLMEDAVQSALSKQNLKKEDIDIFLAGDLLNQNVTANYVARHLKIPFLCLFGACSTSMESIAISSALIDGGFAKRALAATSSHNATAERQFRYPTEYGGQKPGTATSTVTGSGAVVLSQQPGGIKITSATVGRVIDLGITDSQDMGSAMAPAAADTIKQHLEDLGRTPDDYDLILTGDLSGVGSPILKDLLKEEGINVGTKHNDCGLMIYTPDQQVFAGGSGCACSAVVTFAHIFKEIEAGRLNRVLVVATGALLSPTIIQQKESIPCIAHGVVFERAERGNALEHHHHHH,not soluble
2,MKKRLLLSTFLASTLILTGCASDQSDNEDHHTSTGIHAPKSAKKLETKDIFNSDKKNSDISDAEMKQAIEKYLSVNSDILDNKYIMQHKLDKQIDSQTKVTEKQAETLSHLSNLAVKNDLHFKKFVTENNIPKEYKKPVELMMNYFKALNSTIANVDEDIEKLSYQPQNKINVVDVPTKYAGDVNKKQQDKIKDFLKSKGIKSDVIDK,not soluble
3,MSLSGDLVSLKVVVFDIGNVLLRWDPRLLYRKIFSEENQMEWFLSQVCSEAFNRKLDGGAPFAAAIEALVAQFPDFSKEIRAYDERWLETTSGPIPETFAILEELVAEGVPLYAITNFSYEKFEVARCAFELFDRFDGIVVSGAEGVVKPEAPIYRLLLDRYGLDASDCLFIDDSAANVDGARAVGMQGYHYRDPISLRWKLTECGLLCRKSDLNDKGQVLEKREGHHHHHH,soluble
4,MSLSLPSSHFVLIAEEENNSYWRLVEKGAREAENQFDVLVEYKAPKRSNPEEQLKLIDMAISAKVDGIIVQAVNEEMFTPLINKAVDAGIPVITIDTDAPRSNRVAYIGTDNYYSGTIAGKAMLDDMEGDIHVAVITGSLESSHQKLRVQGFIDMISNEPRVTLVEVEASNISRLEAELKAHQLMEEHPHINAFYGTSALDGIGIVAAAEKLGLDDLYVIAFDTLPENLSLLEQEKIDAIVVQEPFEMGLKSVELLLDIREGQPYSMTNHTHTSIIRKPDLSLLQEHQRLGDEGHHHHHH,soluble
5,MGMKYLIKLKYIKPAQLAVNREQKLAEFYPIFEDGTLGRVEAKARVFLPEYSDFAKGLGFEVKKRRMITEDDYAYLRAMVYGVVMGVLRNPGDWRRLEERVLEMEPIELRYWASKFRNAYWKYKNMRKLMFLARRFMEVEMILEHHHHHH,soluble
6,MGHHHHHHSHMKRMAENELSRSVNEFLSKLQDDLKEAMNTMMCSRCQGKHRRFEMDREPKSARYCAECNRLHPAEEGDFWAESSMLGLKITYFALMDGKVYDITEWAGCQRVGISPDTHRVPYHISFGSRIPGTRGRQRATPDAPPADLQDFLSRIFQVPPGQMPMGTSLQLLSLPLEPLQPLSPTAQYPREKPNLSGGRK,not soluble
7,MGSDKIHHHHHHMMSGLVYRKRRRQNMTALERSWFEEAQQSMHGWDFSHLAGRWQTADLPWDYAALVREHLSADDRWLDIDTGGGELMGRFNPQPALTAVTEGWQPNIELLKQTVVKKGITLYPDAAEQLTAVPNSTFDIVTNSHGAMPVKRIAEVLKPGGRFVTQQVGATNNYALSRFFDEHYETAYPDNQLLTVMAQMQAAGFEILRAEQAYAALSFTDVGAIVYYATVIPWEFPHFDVARMLPKLHQLQSLLAINGRVTTFEDRFMIIARKLARRD,not soluble
8,MNDIIVLTGKVKFTITLDPGVWIFDDRKVDMDAYFSEPAPQPTEAEQEDEEIKKLSAFWDREIQEGAVFPPTLKTERRFLKEKIITGSFGMPFAPFLRNAEPHEDASELVIETEHGETVIPLEKAYDLIFAFSQNGKPLRDDGPVHIYFGDGSNREAPITHVRRLVVR,not soluble
9,MRKVTVSLIKADVGSVAGHTTVPDELKKAAEENLKNAVDSGLIIDFRVFNAGDDLELLMTHDKGVDSEEIHRLAWETFEKAAGIAKELKLYGAGQDLLKDAFSGNVRGLGPGVAEMEFTERKAEPVIAFMMDKTEPGAFNMPIFRMFADPFNTAGLVIDPTMHQGFVFEIWDIKESKRVFMRTPEEMYDILALIGGKSRFVIKRVYPKEGGKLPADEPVAVISTEKLYEVAGEYVGKDDPVALVRAQSGLPAVGEVLEPFAFPHLVSGWMRGSHNGPIMPVPFKYSKCTRFDGPPRCIAAGFQLANGKIIGPVDMFDDPAFDYTRQKAMEIAEYMRRHGPFEPHRLPSEDMEYTTLPKVLEKLKGRFEEV,not soluble
10,GMDMKKHGLSIGINRIESVFFVTLKAIGTLTHEDYLVITPMLEGALSQVDQPKVSLFLDATELDGWDLRAAWDDLKLGLKHKSEFERVAILGNKDWQEWAAKIGSWFIAGEIKYFEDEDDALKWLRY,soluble
11,MAHHHHHHMFRSASCILLAAKTIPINPQKPFKLHTAGRDDVPPVPTTATYDTEQMKKCLEMMFRIRRMESLCDQSYKLKKIRGFCHLYIGQEAIPVGMENVLTLEDLIVTAYRDHAWYIVRGGTPGEVFAEMFGKEGGCSKGKGGSMHMYSVKNNFFGGNGIVGAQVPIGAGLGWRFALENRDKPRNVAVTFYGDGAANQGQVFEAMNIAAIHRIPVIFCCENNQFGMGTSKERAAYQPEMYRRGDYIPGLQVDGMDVLAVQEGTRWAKEWCLSGKGPIVLEFDSYRYVGHSMSDPDSQYRKKSDIQDVRKTRDCIHKMKDFMLEEGIMTDEEMKKLEKDVKKEVDQQLQPAEKQKPTPRSELFTDIYVGEQYEHRTTQGTVYAKP,not soluble
12,MGSDKIHHHHHHMNADIKISFIDNIDKISASDWQNLNNSPCPFLRYNFFNALEKSESASAKQGWQAHHLVATNNNDVTAVMPMYLKSHSWGEYVFDWDWADAFKRNDIDYYPKLVATIPFTPVSSDKLLTSQGHVNELFEPLIEHCQQENINSWHILYCNEIRTALPEDVYQRNTVQFHWFNRDYETFDDFLNTFTSRKRKNTRKERLSIIEQEIDIRQLKNNEISQQDLEFFYLTYQLTYLKRGHQPHLSYEFFKQIVADMADNILLIIASHEQEDIACALFFYDDSQLYGRYWGCTKHYNNLHFELCYYRGIEFCIQNKLQSFNPGTQGEHKIQRGFEPVLTYSYHWVKHVPFRMAIKNFCQQEQQHMLTYQEQCQQVLPFRKI,not soluble
13,MAHHHHHHMSTRRLMHTMIRVGDLDRSIKFYTEALGMRLLRKWDCPEDKFTLVFLGYGTESETAVLELTYNYGQSEYKHGDAYGHIAIGVEDVNEEIARLKKMNVPIDYESEDGFMAFIVDPDGYYIELLNTERMLEKSREQMNEQGTA,soluble
14,MEHNQEIMEQFLKLLSENGRAGQSEDLSRLLFYMDGMNRQLDAVRQELQTVKVQLAQAQDTPQKTVLQGMVDGLQSKVRQAQEKLDSLREKIMQCAANAVESFKRVGVTALDKAVSAMGIHKTLEAVQQNISGSLDDARKSIKKVETLGHELRSVGGHLKNAGRAVAGRETQAVDGGQEGRFQAAFLAPMRTAYKMLSSMNNTTLAAIGNVERLETAAEAVREAKKPPVRQTETQEKEQVKELEHKEEPTETQRREKPSIRQTLTEKSEPMDVSDILSDPANIQIFDTVLEESCRQWCDCIGDAPERASGKGFASFFYEVFEQKEQEYKAELKADTRSEKPSIRKALNEKKAEAAARPSPEPERKAPEAAR,not soluble
15,SNAMTQSPIFLTPVFKEKIWGGTALRDRFGYSIPSESTGECWAISAHPKGPSTVANGPYKGKTLIELWEEHREVFGGVEGDRFPLLTKLLDVKEDTSIKVHPDDYYAGENEEGELGKTECWYIIDCKENAEIIYGHTARSKTELVTMINSGDWEGLLRRIKIKPGDFYYVPSGTLHALCKGALVLETQQNSDATYRVYDYDRLDSNGSPRELHFAKAVNAATVPHVDGYIDESTESRKGITIKTFVQGEYFSVYKWDINGEAEMAQDESFLICSVIEGSGLLKYEDKTCPLKKGDHFILPAQMPDFTIKGTCTLIVSHI,soluble
16,MSLKPLADRIRPENFNEVFGQKHIIGEGKILDRILKSSLVPNMIFYGPPGTGKTTVANIIAKKTNKAFYKLNATTASVKDVREITDSTNTLMGRNGVLLYLDEIQNFNKKQQQSLLEFMENGSITLIASTTENPYFYVYNAILSRSTIFEFKPLESDELMKAVNRAVELIKDELKTTEIIITEDAKKYAVGVSSGDVRKTLNSIEIAVYSTKPNEEGNIFIDLETMKECTQKNVLNFDKDGDNHYDILSAFQKSIRGSDADAAVLYLAMLIKGGDLKSICRRLLVIAAEDIGLAYPQAISIVKACTDSALELGFPEARIPLAEAVILLATSPKSNSAITAVDSALRDLDTINVGSIPDYLRDGHYEGAKKLGRMQDYKYPHSYENNYVKQKYLPSNLENRRYYEYGKNKIEEKCREYWERIKEGHHHHHH,soluble
17,MLEIVSEELRHYQEQKLIEYRNKNQLAPKGGIVFAGDSLIEFFPLKKAFGSCLPIINRGIAGIDSQWLLRHFSVQITDLEPKHIFLLIGCNDIGLGYDKCHIVKTIVELISQIRSHCVYSQIYLLSLLPVSNNPRYQKTVKIRTNAMIDAINKDLAMIPTVEFINLNTCLKDEKGGLSDENTLDGLHLNFPAYAKLAEIIKSYI,not soluble
18,GPGSMKQIAHYFRIKTAKHAVLEAGDNIRELCSVLSFPLIIKHVSGYSSVGMDKSCKVYDMDSLHSRVTRFIEQYQIALVEEFVVGDEATILVCADSTQPDGIRVFPPVMVQFPEGEDFKHFHLKWETYEGMEWRLMPEDDPALSQVLSTARTSFMHMMGGVGYGRVDVRIDRSTHDVVFLEINPNCGVMYPPGQEGSADWILRLTPGFNQREFTLLQIKEALRRNERMQPLFRCVYNPAQGYRMCATRDISAGSPIFEAEGQSVRLYTKPHVKATRGKEEYDQFAQKAWPLGGDGHYYALWDNEPTNWRTFSHSCVPNMNFGPNRSLNLYATRDIARGEELTMDYRLFRDETTPPFQCCCGSECCEGWIAMNGGKLTKEENGNNY,not soluble
19,TDVDAFTLGEDLAYTPGDVIYQNDLIQLIQYKASTKKVNEVPLLFIPPFINKYYVLDMDEQKSLIKWAVGQGHTVFVISWINPDKTLSHKGFNDYMKEGPIASLDVIEELTKSKKVNVVGYCIGGTLLATTQSYLLAKGDTRINSLTFLTTLLDFEEPGEIGVYLSEKMLPFLKKDIKEKGLLDGRVLGLAFSMLRENSLFWSYFVNNYLKGKDPAPFDILYWNSDSSNLPAETFDFYMTNTYQENNLIKDGAVEVEGVPIELSKIDTPSYFLATIADHIVLWQASYKGAKALSGPTRFVLAGSGHL,not soluble
20,MSAFFLNMEKSIITQKIIAKAFKDLMQSNAYHQISVSDIMQTAKIRRQTFYNYFQNQEELLSWIFENDFAELINDNSDYYGWQNELLLLLRYLDENQIFYQKIFVIDKNFEHFFLIQWENLLDKVIFDQEKKSDYHWSDLEKSFICRYNAAAICAITRESIIRGNSLEKLYSQIVNLLLAQIKIFESLEHHHHHH,soluble
21,MRSHNLFGDMCEAFMTKYVMTELRPKTQTLYKSTFNKYVTPYKNIDIERYKYTDWIAYFDWVKKESSSANAGSVLKRFKAVANWAKARGQIKHSHLIDIPIKLEHHHHHH,not soluble
